Reference: patent US20240376204A1 (JIANGSU HENGRUI PHARMACEUTICALS, published 2024)

What was measured:
[1] = biological target: T1, human TIGIT recombinant protein (human, UniProt Q495A1 22-141); assay: ELISA, plate coated with TIGIT protein
T1 construct: also called human TIGIT antigen (AcroBiosystem, TIT-H52H3); TIGIT protein
T1 sequence (looked up): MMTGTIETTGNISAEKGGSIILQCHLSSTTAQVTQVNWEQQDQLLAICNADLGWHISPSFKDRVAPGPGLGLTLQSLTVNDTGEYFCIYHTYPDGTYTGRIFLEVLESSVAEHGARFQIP
Description: (§1) ELISA assays were performed. TIGIT or PVRIG protein (his tag, Acrobiosystems, PVG-H52H4) was dissolved in PBS to 1 μg/mL, and the solution was added to a 96-well plate at 100 μL/well. The plate was coated with the antigen overnight at 4° C. The plate was washed with PBST solution three times. PBST/1% BSA solution was added, and the plate was incubated at 37° C. for 1 h for blocking. After three washes with PBST solution, different concentrations of the trispecific antibodies (diluted with PBST/1% BSA solution) were added, and the plate was incubated at 37° C. for 1.5 h. The plate was washed with PBST solution three times. […] After three washes with PBST solution, TMB solution was added at 100 μL/well. After 5 min of reaction at room temperature, 50 μL of stop solution was added. OD450 values were measured using a microplate reader, and EC₅₀ was calculated.

[2] = biological target: T2, human PD-1 expressed on cells (human, UniProt Q15116 25-288); assay: cell-based or functional assay
T2 sequence (Q15116 25-288 limits assumed): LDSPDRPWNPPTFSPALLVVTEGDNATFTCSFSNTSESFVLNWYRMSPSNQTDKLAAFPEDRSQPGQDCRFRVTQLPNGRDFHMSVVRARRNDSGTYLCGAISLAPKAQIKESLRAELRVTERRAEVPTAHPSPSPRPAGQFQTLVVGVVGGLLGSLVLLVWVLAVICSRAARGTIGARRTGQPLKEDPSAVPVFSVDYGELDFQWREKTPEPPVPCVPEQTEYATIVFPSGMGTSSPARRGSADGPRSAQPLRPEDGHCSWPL

[3] = biological target: T3, his-tagged human PVRIG (h-PVRIG-his) recombinant protein (human, UniProt Q6DKI7 41-171, limits assumed); assay: ELISA, plate coated with PVRIG protein (his tag)
T3 construct: Acrobiosystems; also called Human PVRIG-his; human PVRIG recombinant protein; not shown: his tag
T3 sequence (looked up): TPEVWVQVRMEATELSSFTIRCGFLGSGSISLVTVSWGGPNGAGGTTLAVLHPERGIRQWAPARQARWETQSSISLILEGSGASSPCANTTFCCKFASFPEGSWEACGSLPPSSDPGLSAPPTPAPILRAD
Description: as §1

[4] = biological target: T2, human PD-1 expressed on cells; assay: cell-based or functional assay; remark: listed apart in the source
[5] = biological target: T2, human PD-1 expressed on cells; assay: cell-based or functional assay; remark: listed apart in the source
[6] = biological target: T4, human PVRIG expressed on cells (human, UniProt Q6DKI7 41-326); assay: cell-based or functional assay
T4 sequence (looked up): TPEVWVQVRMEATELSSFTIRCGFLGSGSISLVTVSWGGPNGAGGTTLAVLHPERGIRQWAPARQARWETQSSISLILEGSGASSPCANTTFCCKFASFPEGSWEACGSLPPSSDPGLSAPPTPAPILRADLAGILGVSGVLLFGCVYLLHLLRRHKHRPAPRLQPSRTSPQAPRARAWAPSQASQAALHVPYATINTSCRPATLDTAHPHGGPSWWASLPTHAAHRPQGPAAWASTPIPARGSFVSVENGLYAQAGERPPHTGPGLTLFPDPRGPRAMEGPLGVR

[7] = biological target: T4, human PVRIG expressed on cells; assay: FACS, HEK293F cells expressing human PVRIG
Description: A stably transfected HEK293F cell strain expressing the human PVRIG gene, a stably transfected CHO-K1 cell strain expressing the human TIGIT gene, and Jurkat cells expressing human PD-1 were used. The cell strain was inoculated into a 96-well plate at 2×10⁵ cells/well. The plate was centrifuged at 300 g for 5 min, and the supernatant was removed. 100 μL of test antibody was added, and the plate was incubated at 4° C. for 1 h. The plate was centrifuged, and the supernatant was removed. The plate was washed 3 times with 200 μL of wash buffer (PBS+2% FBS), and 100 μL of an Alexa Fluor 488-labeled anti-human IgG secondary antibody (Invitrogen, A-11013) diluted at 1:500 was added. The plate was incubated at 4° C. for 1 h. The plate was centrifuged, and the supernatant was removed. The plate was washed 3 times with 200 μL of wash buffer (PBS+2% FBS). The cells were resuspended in 100 μL of PBS and tested on a flow cytometer (BD FACS Calibur or BD FACS Canto_ II).

B1: A17h1-1708-30H2-D (trispecific antibody, human IgG4 S228P, kappa)
heavy: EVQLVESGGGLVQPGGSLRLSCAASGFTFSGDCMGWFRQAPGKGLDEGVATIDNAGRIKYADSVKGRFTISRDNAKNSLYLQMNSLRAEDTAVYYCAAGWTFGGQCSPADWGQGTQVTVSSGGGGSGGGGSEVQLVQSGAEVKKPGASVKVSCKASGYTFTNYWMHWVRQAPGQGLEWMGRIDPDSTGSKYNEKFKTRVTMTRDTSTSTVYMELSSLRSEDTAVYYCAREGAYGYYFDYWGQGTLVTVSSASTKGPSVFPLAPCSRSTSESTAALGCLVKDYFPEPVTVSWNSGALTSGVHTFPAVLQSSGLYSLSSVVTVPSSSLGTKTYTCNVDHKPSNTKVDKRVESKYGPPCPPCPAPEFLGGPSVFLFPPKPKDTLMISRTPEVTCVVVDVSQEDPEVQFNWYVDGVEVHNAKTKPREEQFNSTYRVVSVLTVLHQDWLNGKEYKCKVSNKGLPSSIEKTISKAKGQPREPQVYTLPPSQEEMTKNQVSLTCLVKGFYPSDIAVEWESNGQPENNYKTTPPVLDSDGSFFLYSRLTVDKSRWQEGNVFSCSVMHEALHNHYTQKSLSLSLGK
light: DIQMTQSPSSLSASVGDRVTITCRASENIYSYLAWYQQKPGKSPKLLIYNARTLAEGVPSRFSGSGSGTDFTLTISSLQPEDFATYYCQYHSGSPLPFGGGTKVEIKRTVAAPSVFIFPPSDEQLKSGTASVVCLLNNFYPREAKVQWKVDNALQSGNSQESVTEQDSKDSTYSLSSTLTLSKADYEKHKVYACEVTHQGLSSPVTKSFNRGECGGGGSGGGGSEVQLQESGGGLVQPGGSLRLSCTASGLTFSDYSMSWYRQAPGKGRELVAIISGSGVIAHYVDSVKGRFTISRDNSKNTVYLQMRSLTPEDRAVYYCRAVSDWDDYWGQGTQVTVSS
- EC50 [1]: 0.113 nM
- DC:T MLR result, 0.1 nM antibody (unit not given) [2]: 115
- DC:T MLR result, 1 nM antibody (unit not given) [2]: 116
- DC:T MLR result, 10 nM antibody (unit not given) [2]: 122
- DC:T MLR result, 100 nM antibody (unit not given) [2]: 136
- EC50 [3]: 0.0885 nM
- IC50, PD-1/PD-L1 NFAT reporter gene system [4]: 0.825 nM

B2: A17h1-1708-151H7-B (trispecific antibody, human IgG4 S228P, kappa)
heavy: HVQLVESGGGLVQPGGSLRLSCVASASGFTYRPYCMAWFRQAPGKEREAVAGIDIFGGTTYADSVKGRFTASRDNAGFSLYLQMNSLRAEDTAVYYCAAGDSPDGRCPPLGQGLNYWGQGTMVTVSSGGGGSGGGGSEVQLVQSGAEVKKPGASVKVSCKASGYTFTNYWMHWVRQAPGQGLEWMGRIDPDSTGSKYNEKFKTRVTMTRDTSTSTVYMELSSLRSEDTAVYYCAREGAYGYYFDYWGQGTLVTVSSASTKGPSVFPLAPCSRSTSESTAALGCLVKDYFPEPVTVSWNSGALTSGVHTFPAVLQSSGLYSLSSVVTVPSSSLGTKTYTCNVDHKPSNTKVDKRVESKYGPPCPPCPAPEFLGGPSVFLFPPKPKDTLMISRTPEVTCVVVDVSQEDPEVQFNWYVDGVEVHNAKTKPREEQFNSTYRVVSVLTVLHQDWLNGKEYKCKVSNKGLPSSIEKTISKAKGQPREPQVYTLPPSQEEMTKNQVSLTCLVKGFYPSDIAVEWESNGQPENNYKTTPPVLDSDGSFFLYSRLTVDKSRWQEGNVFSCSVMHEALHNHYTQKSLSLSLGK
light: EVQLQESGGGLVQPGGSLRLSCTASGLTFSDYSMSWYRQAPGKGRELVAIISGSGVIAHYVDSVKGRFTISRDNSKNTVYLQMRSLTPEDRAVYYCRAVSDWDDYWGQGTQVTVSSGGGGSGGGGSDIQMTQSPSSLSASVGDRVTITCRASENIYSYLAWYQQKPGKSPKLLIYNARTLAEGVPSRFSGSGSGTDFTLTISSLQPEDFATYYCQYHSGSPLPFGGGTKVEIKRTVAAPSVFIFPPSDEQLKSGTASVVCLLNNFYPREAKVQWKVDNALQSGNSQESVTEQDSKDSTYSLSSTLTLSKADYEKHKVYACEVTHQGLSSPVTKSFNRGEC
- IC50 (read off the curve) [5]: ~0.4 nM
- DC:T MLR result, 0.1 nM antibody (unit not given) [2]: 108
- DC:T MLR result, 1 nM antibody (unit not given) [2]: 97.8
- DC:T MLR result, 10 nM antibody (unit not given) [2]: 136
- DC:T MLR result, 100 nM antibody (unit not given) [2]: 148
- EC50 [3]: 0.154 nM

B3: A17h1-1708-30H2-B (trispecific antibody, human IgG4 S228P, kappa)
heavy: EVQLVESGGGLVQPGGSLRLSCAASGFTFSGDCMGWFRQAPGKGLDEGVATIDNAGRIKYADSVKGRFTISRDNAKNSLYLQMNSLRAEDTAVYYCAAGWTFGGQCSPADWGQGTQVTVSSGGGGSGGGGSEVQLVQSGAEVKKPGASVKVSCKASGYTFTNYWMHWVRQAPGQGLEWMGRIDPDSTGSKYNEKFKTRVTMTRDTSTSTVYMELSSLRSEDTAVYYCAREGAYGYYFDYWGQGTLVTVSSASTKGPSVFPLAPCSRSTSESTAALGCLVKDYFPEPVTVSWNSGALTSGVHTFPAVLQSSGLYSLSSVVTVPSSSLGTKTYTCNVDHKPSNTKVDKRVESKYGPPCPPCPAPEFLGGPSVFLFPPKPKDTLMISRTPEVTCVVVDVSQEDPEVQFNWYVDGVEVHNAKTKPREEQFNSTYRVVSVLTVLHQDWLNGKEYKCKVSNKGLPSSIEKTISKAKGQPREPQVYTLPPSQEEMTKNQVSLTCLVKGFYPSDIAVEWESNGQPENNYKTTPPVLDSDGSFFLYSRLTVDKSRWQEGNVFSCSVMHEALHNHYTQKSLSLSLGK
light: EVQLQESGGGLVQPGGSLRLSCTASGLTFSDYSMSWYRQAPGKGRELVAIISGSGVIAHYVDSVKGRFTISRDNSKNTVYLQMRSLTPEDRAVYYCRAVSDWDDYWGQGTQVTVSSGGGGSGGGGSDIQMTQSPSSLSASVGDRVTITCRASENIYSYLAWYQQKPGKSPKLLIYNARTLAEGVPSRFSGSGSGTDFTLTISSLQPEDFATYYCQYHSGSPLPFGGGTKVEIKRTVAAPSVFIFPPSDEQLKSGTASVVCLLNNFYPREAKVQWKVDNALQSGNSQESVTEQDSKDSTYSLSSTLTLSKADYEKHKVYACEVTHQGLSSPVTKSFNRGEC
- EC50 [1]: 0.107 nM
- DC:T MLR result, 0.1 nM antibody (unit not given) [2]: 108
- DC:T MLR result, 1 nM antibody (unit not given) [2]: 137
- DC:T MLR result, 10 nM antibody (unit not given) [2]: 125
- DC:T MLR result, 100 nM antibody (unit not given) [2]: 134
- EC50 [3]: 0.0583 nM
- IC50, PD-1/PD-L1 NFAT reporter gene system [4]: 0.344 nM

B4: 151H7 (Fc fusion, not shown: a dimerising Fc or GST)
chain: HVQLVESGGGLVQPGGSLRLSCVASASGFTYRPYCMAWFRQAPGKEREAVAGIDIFGGTTYADSVKGRFTASRDNAGFSLYLQMNSLRAEDTAVYYCAAGDSPDGRCPPLGQGLNYWGQGTMVTVSS
- PVRIG reporter gene cell activity EC50 [6]: 0.038 nM

B5: 30H2 (Fc fusion, not shown: a dimerising Fc or GST)
chain: EVQLVESGGGLVQPGGSLRLSCAASGFTFSGDCMGWFRQAPGKGLDEGVATIDNAGRIKYADSVKGRFTISRDNAKNSLYLQMNSLRAEDTAVYYCAAGWTFGGQCSPADWGQGTQVTVSS
- PVRIG reporter gene cell activity EC50 [6]: 0.176 nM

B6: 30H3 (Fc fusion, not shown: a dimerising Fc or GST)
chain: EVQLVESGGGLVQPGGSLRLSCAASGYSYSGDCMGWFRQAPGKGLDEGVATIDNAGRIKYADSVKGRFTISRDNAKNSLYLQMNSLRAEDTAVYYCAAGWTFGGQCSPADWGQGTQVTVSS
- PVRIG reporter gene cell activity EC50 [6]: 0.078 nM

B7: A17h1-1708-30H2-A (trispecific antibody, human IgG4 S228P, kappa)
heavy: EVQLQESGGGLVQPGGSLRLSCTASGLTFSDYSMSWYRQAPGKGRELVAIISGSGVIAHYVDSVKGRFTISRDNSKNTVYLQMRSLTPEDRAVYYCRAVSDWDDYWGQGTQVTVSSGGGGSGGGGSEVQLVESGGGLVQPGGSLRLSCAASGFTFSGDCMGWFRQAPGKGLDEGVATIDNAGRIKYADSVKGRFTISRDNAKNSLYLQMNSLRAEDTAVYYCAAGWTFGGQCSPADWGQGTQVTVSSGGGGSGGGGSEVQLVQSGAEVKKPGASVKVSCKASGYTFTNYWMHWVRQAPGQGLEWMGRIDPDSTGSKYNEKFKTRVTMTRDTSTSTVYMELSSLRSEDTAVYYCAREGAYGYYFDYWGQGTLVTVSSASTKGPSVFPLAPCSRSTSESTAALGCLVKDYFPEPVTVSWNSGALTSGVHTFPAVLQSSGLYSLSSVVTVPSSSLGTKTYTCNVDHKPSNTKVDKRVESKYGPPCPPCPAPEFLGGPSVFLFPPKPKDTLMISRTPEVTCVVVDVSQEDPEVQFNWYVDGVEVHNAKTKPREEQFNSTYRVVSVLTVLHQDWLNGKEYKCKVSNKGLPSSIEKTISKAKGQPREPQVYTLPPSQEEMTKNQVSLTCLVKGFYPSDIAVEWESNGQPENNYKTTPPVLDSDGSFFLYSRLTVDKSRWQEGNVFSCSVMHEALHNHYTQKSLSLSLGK
light: DIQMTQSPSSLSASVGDRVTITCRASENIYSYLAWYQQKPGKSPKLLIYNARTLAEGVPSRFSGSGSGTDFTLTISSLQPEDFATYYCQYHSGSPLPFGGGTKVEIKRTVAAPSVFIFPPSDEQLKSGTASVVCLLNNFYPREAKVQWKVDNALQSGNSQESVTEQDSKDSTYSLSSTLTLSKADYEKHKVYACEVTHQGLSSPVTKSFNRGEC
- EC50 [1]: 0.0875 nM
- DC:T MLR result, 0.1 nM antibody (unit not given) [2]: 118
- DC:T MLR result, 1 nM antibody (unit not given) [2]: 118
- DC:T MLR result, 10 nM antibody (unit not given) [2]: 124
- DC:T MLR result, 100 nM antibody (unit not given) [2]: 128
- EC50 [3]: 0.0589 nM
- IC50, PD-1/PD-L1 NFAT reporter gene system [4]: 0.801 nM

B8: 1708-30H2 (bispecific antibody, human IgG4 S228P, kappa)
heavy: not shown
light: DIQMTQSPSSLSASVGDRVTITCRASENIYSYLAWYQQKPGKSPKLLIYNARTLAEGVPSRFSGSGSGTDFTLTISSLQPEDFATYYCQYHSGSPLPFGGGTKVEIKRTVAAPSVFIFPPSDEQLKSGTASVVCLLNNFYPREAKVQWKVDNALQSGNSQESVTEQDSKDSTYSLSSTLTLSKADYEKHKVYACEVTHQGLSSPVTKSFNRGEC
notes: Humanized anti-PVRIG/TIGIT
- EC50 [1]: 0.116 nM
- EC50 [3]: 0.0846 nM

B9: A17h1-1708-30H2-C (trispecific antibody, human IgG4 S228P, kappa)
heavy: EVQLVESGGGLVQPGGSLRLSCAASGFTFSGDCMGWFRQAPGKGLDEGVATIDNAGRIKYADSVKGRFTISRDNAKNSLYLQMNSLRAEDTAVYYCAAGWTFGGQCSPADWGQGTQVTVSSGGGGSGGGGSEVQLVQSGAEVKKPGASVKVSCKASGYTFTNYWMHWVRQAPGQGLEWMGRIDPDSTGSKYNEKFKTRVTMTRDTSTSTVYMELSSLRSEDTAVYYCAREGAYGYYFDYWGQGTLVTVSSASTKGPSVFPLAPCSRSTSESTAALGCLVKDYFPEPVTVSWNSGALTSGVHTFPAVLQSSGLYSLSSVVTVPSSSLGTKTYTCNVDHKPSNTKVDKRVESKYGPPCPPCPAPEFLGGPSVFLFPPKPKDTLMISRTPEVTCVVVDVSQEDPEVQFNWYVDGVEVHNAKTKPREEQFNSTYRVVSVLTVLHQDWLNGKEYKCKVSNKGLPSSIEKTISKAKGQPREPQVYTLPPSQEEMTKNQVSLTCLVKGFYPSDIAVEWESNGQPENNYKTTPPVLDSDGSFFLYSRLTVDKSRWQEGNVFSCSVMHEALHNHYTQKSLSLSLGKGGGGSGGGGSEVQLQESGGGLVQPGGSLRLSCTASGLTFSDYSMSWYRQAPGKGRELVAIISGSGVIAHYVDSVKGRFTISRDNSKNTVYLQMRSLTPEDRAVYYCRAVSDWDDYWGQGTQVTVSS
light: DIQMTQSPSSLSASVGDRVTITCRASENIYSYLAWYQQKPGKSPKLLIYNARTLAEGVPSRFSGSGSGTDFTLTISSLQPEDFATYYCQYHSGSPLPFGGGTKVEIKRTVAAPSVFIFPPSDEQLKSGTASVVCLLNNFYPREAKVQWKVDNALQSGNSQESVTEQDSKDSTYSLSSTLTLSKADYEKHKVYACEVTHQGLSSPVTKSFNRGEC
notes: Type C
- EC50 [1]: 0.0951 nM
- DC:T MLR result, 0.1 nM antibody (unit not given) [2]: 133
- DC:T MLR result, 1 nM antibody (unit not given) [2]: 131
- DC:T MLR result, 10 nM antibody (unit not given) [2]: 123
- DC:T MLR result, 100 nM antibody (unit not given) [2]: 149
- EC50 [3]: 0.0822 nM
- IC50, PD-1/PD-L1 NFAT reporter gene system [4]: 0.264 nM

B10: A17m0902-1708-151H7-01-C (trispecific antibody, human IgG4 S228P, kappa)
heavy: not shown
light: DIQMTQSPSSLSASVGDRVTITCRASENIYSYLAWYQQKPGKSPKLLIYNARTLAEGVPSRFSGSGSGTDFTLTISSLQPEDFATYYCQYHSGSPLPFGGGTKVEIKRTVAAPSVFIFPPSDEQLKSGTASVVCLLNNFYPREAKVQWKVDNALQSGNSQESVTEQDSKDSTYSLSSTLTLSKADYEKHKVYACEVTHQGLSSPVTKSFNRGEC
notes: Type C; first residue of the 151H7 part changed from H to E; also called 151H7 H1E trispecific
- EC50 [7]: 0.105 nM
- EMAX [7]: 1550

B11: 1708-151H7 (bispecific antibody, human IgG4 S228P, kappa)
heavy: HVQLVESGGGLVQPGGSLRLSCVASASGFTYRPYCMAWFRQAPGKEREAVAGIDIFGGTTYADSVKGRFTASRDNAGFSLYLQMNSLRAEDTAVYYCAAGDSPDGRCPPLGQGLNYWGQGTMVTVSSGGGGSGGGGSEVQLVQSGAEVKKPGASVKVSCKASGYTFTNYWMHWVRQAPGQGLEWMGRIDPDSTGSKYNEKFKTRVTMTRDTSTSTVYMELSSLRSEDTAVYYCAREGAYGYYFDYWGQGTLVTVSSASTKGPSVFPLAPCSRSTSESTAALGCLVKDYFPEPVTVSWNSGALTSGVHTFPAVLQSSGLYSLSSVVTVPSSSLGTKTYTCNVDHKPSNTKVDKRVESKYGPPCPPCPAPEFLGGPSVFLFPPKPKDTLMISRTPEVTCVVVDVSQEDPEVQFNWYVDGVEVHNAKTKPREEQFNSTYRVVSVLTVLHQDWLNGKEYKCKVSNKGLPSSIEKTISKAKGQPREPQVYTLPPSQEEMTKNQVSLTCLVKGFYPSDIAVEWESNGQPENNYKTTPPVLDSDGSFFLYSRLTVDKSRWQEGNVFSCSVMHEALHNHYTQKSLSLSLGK
light: DIQMTQSPSSLSASVGDRVTITCRASENIYSYLAWYQQKPGKSPKLLIYNARTLAEGVPSRFSGSGSGTDFTLTISSLQPEDFATYYCQYHSGSPLPFGGGTKVEIKRTVAAPSVFIFPPSDEQLKSGTASVVCLLNNFYPREAKVQWKVDNALQSGNSQESVTEQDSKDSTYSLSSTLTLSKADYEKHKVYACEVTHQGLSSPVTKSFNRGEC
notes: Humanized anti-PVRIG/TIGIT
- EC50 [7]: 0.112 nM
- EMAX [7]: 1360
- EC50 [3]: 0.125 nM

B12: A17m0902-1708-151H7-C (trispecific antibody, human IgG4 S228P, kappa)
heavy: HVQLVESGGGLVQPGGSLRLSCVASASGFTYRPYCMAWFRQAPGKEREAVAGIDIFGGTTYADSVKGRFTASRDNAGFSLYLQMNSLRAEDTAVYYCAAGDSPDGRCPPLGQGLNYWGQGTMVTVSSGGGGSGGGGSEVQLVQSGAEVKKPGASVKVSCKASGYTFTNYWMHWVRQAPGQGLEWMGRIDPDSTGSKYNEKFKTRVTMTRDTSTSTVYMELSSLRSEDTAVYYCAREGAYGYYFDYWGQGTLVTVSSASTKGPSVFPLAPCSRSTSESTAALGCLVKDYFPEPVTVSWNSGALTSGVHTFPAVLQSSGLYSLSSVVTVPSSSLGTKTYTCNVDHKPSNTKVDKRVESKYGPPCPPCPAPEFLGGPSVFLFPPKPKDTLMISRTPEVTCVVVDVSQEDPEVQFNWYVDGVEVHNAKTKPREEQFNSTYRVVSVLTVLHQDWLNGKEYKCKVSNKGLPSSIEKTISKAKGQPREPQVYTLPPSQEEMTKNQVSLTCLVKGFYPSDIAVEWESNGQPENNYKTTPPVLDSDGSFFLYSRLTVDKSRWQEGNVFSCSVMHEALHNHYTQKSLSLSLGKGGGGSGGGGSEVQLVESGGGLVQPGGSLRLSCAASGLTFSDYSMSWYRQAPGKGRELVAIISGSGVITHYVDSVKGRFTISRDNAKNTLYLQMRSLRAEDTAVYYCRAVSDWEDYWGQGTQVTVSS
light: DIQMTQSPSSLSASVGDRVTITCRASENIYSYLAWYQQKPGKSPKLLIYNARTLAEGVPSRFSGSGSGTDFTLTISSLQPEDFATYYCQYHSGSPLPFGGGTKVEIKRTVAAPSVFIFPPSDEQLKSGTASVVCLLNNFYPREAKVQWKVDNALQSGNSQESVTEQDSKDSTYSLSSTLTLSKADYEKHKVYACEVTHQGLSSPVTKSFNRGEC
notes: Type C; also called A17m0902-151H7-C
- EC50 [7]: 0.0944 nM
- EMAX [7]: 1520

B13: A17m0902-1708-151H7-02-C (trispecific antibody, human IgG4 S228P, kappa)
heavy: not shown
light: DIQMTQSPSSLSASVGDRVTITCRASENIYSYLAWYQQKPGKSPKLLIYNARTLAEGVPSRFSGSGSGTDFTLTISSLQPEDFATYYCQYHSGSPLPFGGGTKVEIKRTVAAPSVFIFPPSDEQLKSGTASVVCLLNNFYPREAKVQWKVDNALQSGNSQESVTEQDSKDSTYSLSSTLTLSKADYEKHKVYACEVTHQGLSSPVTKSFNRGEC
notes: Type C; first residue of the 151H7 part changed from H to Q; also called 151H7 H1Q trispecific
- EC50 [7]: 0.0964 nM
- EMAX [7]: 1520
